Biological target: 14R1 revertant mutant E
Assay: ELISA, epitope mapping

B1: monoclonal antibody 61D8 (IgG) (antibody, V domains shown)
VH: CKASGYSFTSYWMHWVKQRPGQGLEWIGMIDPSDSETKLNQQFKDKATLTVDTSSSTAYMQLTSPTSEDSVVYYCARGKMGGRFYFDYLGQGTTLTVSS
VL: ITCKASQDVGTAVVWYQQKPGQSPKLLIYWASTRHTGVPDRFTGSGFGTDFTLTISNVQSEDLADYFCQQFSSYPYTFGGGTKLEIKR
Q: For B1, which fold reduction in 61D8 binding (against 14R1) is on record?
A: 30 fold

Source: patent US20220064233A1
